Experimental data taken from patent US20220380455A1 (Alector, published 2022).
Where “and” joins values, the source holds several entries; their conditions need not be identical. Equal entries are not always repeated.

T1: MS4A6A ECL1 peptide (human)
T1 construct: the description elsewhere gives ECL1 as 68-84; Human and cyno ECL1 are said to be identical
T1 peptide: SASFSPNFTQVTSTLLNS

T2: MS4A6A ECL2 peptide (human)
T2 construct: also called MS4A6A ECL-2 peptides
T2 peptide: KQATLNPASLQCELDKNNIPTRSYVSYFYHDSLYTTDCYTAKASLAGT

T3: cynomolgus (cyno) MS4A6A (cynomolgus, UniProt Q9H2W1 1-246 (human entry))
T3 construct: Full-length protein expressed in transfected HEK293, U937 or K562 cells (flow cytometry)
T3 chain: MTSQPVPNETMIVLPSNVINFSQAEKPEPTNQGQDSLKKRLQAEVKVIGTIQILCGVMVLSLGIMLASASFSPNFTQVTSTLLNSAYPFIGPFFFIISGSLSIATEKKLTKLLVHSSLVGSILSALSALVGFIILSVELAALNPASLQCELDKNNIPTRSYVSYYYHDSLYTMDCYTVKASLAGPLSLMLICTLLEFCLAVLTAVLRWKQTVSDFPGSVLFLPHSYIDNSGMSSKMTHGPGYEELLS


Key:
MS4A6A ECL1 peptide = target: T1, MS4A6A ECL1 peptide; assay: peptide ELISA, hybridoma supernatant
Protocol: Anti-MS4A6A hybridoma supernatants were tested for binding to MS4A6A peptides derived from ECL1 (amino acid residues 68-85 of human MS4A6A of SEQ ID NO:1) and ECL2 (amino acid residues 138-185 of human MS4A6A of SEQ ID NO:1) sequences, using an enzyme-linked immunosorbent assay (ELISA). Briefly, 96-well polystyrene plates were coated with 1-10 μg/mL of synthetic free or BSA-conjugated peptides in coating buffer (0.05M carbonate buffer, pH9.6, Millipore Sigma C3041) overnight at 4° C. Coated plates were then blocked with ELISA diluent (PBS+0.5% BSA+0.05% Tween20) for 1-hour, washed 3×300 μL in PBST (PBS+0.05% Tween20, Thermo 28352), and then the antibodies were added at various dilutions (100-1000×) in ELISA diluent. After 30 mins incubation (room temperature, with shaking), the plates were washed 3×300 μl in PBST. A secondary anti-mouse HRP antibody (Jackson Immunoresearch CAT #115-035-003) was added at a 1:1000 dilution in ELISA diluent (50 μL/well) and incubated for 30 minutes at room temperature with shaking. After a final set of washes (3×300 μl in PBST), 50 μL of TMB substrate (BioFx TMBW-1000-01) was added and the reaction was then quenched after 5-10 mins with 50 μL of stop solution (BioFx BSTP-1000-01). The quenched reaction wells were detected for absorbance at […] with a BioTek Synergy Microplate Reader using GENS 2.04 software.

MS4A6A ECL2 peptide = target: T2, MS4A6A ECL2 peptide; assay: array SPR (Carterra MX-96), antibody captured on anti-mouse IgG-Fc, ECL2 peptide injected
Protocol: Binding kinetic characterization of the purified antibodies to MS4A6A ECL1 and ECL2 peptides was performed by Carterra (South San Francisco, Calif.) using a proprietary array Surface Plasmon Resonance (SPR) instrument (MX-96) as follows. Antibodies were printed onto a CMD5OOD chip (Xantec #SPMX CMD500D lot #SC CMD500D0117.a Exp. 31.12.18) using the Continuous Flow Microspotter (CFM). First, the chip was activated with 100 mM MES pH 5.5, 100 μL EDC (133 mM final), 100 μL of S-NHS (33.3 mM final), for 7 minutes. A lawn of anti-mouse IgG-Fc (Jackson ImmunoResearch CAT #115-005-071 lot#130410) was injected for 15 minutes to establish a surface density of 10000-12000 RU, after which the chip surface was deactivated with 1 M ethanolamine at pH 8.5 for 10 minutes. Anti-MS4A6A antibodies in question, in the form of hybridoma supernatants diluted 2:1 with HBS-EP+buffer (Teknova CAT #H8022), were then printed as duplicates with a 20 minute and a 5 minutes print from the same sample solution. Control antibodies were diluted to 20 μ/ml for printing.
To perform kinetic analysis, the peptides in question were prepared in HBS-EP+buffer with lmg/ml BSA at final assay concentrations of 2000 nM, 400 nM, 80 nM, 16 nmM, and 3.2 nM. These were then injected on the chip for five minutes, followed by a seven-minute dissociation period at 8 uL per second in a non-regenerative kinetic series. Duplicate measurements for each anti-MS4A6A antibody were taken to ensure reproducibility.
Kₐ (association rate constant; Kₒₙ), Kd (dissociation rate constant; Koff) and KD (equilibrium constant) to MS4A6A ECL-2 peptides were calculated for each of the 23 anti-MS4A6A antibodies tested, the results of which are shown below in Table 5 (clones that bound too weakly to determine these values are denoted as N/A in Table 5).

cynomolgus (cyno) MS4A6A [1] = target: T3, cynomolgus (cyno) MS4A6A; assay: flow cytometry, hybridoma supernatant, HEK293 transfected with cyno MS4A6A over parental HEK293; Screen 1
Protocol: (§1) Positive clones were expanded and then rescreened for specificity against HEK293 cells overexpressing cyno MS4A6A and parental HEK293 cells. Briefly, previously prepared, cryopreserved transiently-transfected cells were labeled with LIVE/DEAD Fixable Aqua Dead Cell Stain Kit (ThermoFisher Scientific L34957) on ice for 30 minutes. After a wash with PBS, 2×10⁵ cells were aliquoted per well in 96-well round bottom plates and incubated with 50 μl of culture supernatant on ice for 30 mins. […] Following this secondary incubation, the cells were again washed twice with ice-cold FACS buffer and resuspended in a final volume of 200 μl of FACS buffer. Analysis was performed on a FACS Canto system (BD Biosciences), with sort gates drawn to exclude dead (Aqua-positive) cells. […] The screen was repeated twice, and the numbers reported here represent the ratio of mean fluorescence level in transfected cells over parental cells.

cynomolgus (cyno) MS4A6A [2] = target: T3, cynomolgus (cyno) MS4A6A; assay: flow cytometry, hybridoma supernatant, HEK293 transfected with cyno MS4A6A over parental HEK293; Screen 2
Protocol: as §1

| binding result (MS4A6A ECL1 peptide) | Kd (MS4A6A ECL2 peptide) | koff (MS4A6A ECL2 peptide) | kon (MS4A6A ECL2 peptide) | ratio of APC MFI on MS4A6A+/HEK parental cells (cynomolgus (cyno) MS4A6A [1]) [ratio] | ratio of APC MFI on MS4A6A+/HEK parental cells (cynomolgus (cyno) MS4A6A [2]) [ratio] | Binder |
| --- | --- | --- | --- | --- | --- | --- |
| no binding | 160 nM and 130 nM | 0.00081 s⁻¹ and 0.00067 s⁻¹ | 5200 M⁻¹ s⁻¹ and 5100 M⁻¹ s⁻¹ | 40.3 | 45.5 | 6A-12 (antibody, V domains shown, Mouse hybridoma antibody, tested as hybridoma supernatant (mouse IgG, detected or captured via anti-mouse IgG Fc); also called anti-MS4A6A antibody 6A-12) VH: EVQLQQSGPELVKPGASVKISCKASGYSFTGYYMHWVKQSPEDSLEWIGAINPSTGGSTYSQKFKDKATLTVDKSSSTAYMQLKSLTSEESAVYYCTRFDGYGYWGQGTLVTVSS VL: DIVMTQAAFSNPVTLGTSASISCRSSKSLLHSNGITYLYWYLQKPGQSLQLLIYQMSNLASGVPDRFSGSGSGTDFTLRISRVEAEDVGVYYCAQNLELPWTFGGGTKLEIK |
| no binding | 200 nM | 0.001 s⁻¹ | 5300 M⁻¹ s⁻¹ | 71.8 | 136 | 6A-21 (antibody, V domains shown, Mouse hybridoma antibody, tested as hybridoma supernatant (mouse IgG, detected or captured via anti-mouse IgG Fc); also called anti-MS4A6A antibody 6A-21) VH: EVQLQQSGPELVKPGASVKMSCKASGYTFTDYFMKWVKQSHGKSLEWIGDINPKNGDTFYNQKFKGKATLTVDKSSSTAYMQLNSLTSEDSAVYYCARPGYFDVWGAGTTVTVSS VL: not shown |
| no binding | 170 nM and 150 nM | 0.00096 s⁻¹ and 0.001 s⁻¹ | 5700 M⁻¹ s⁻¹ and 6900 M⁻¹ s⁻¹ | 20.2 | 59.1 | 6A-14 (antibody, V domains shown, Mouse hybridoma antibody, tested as hybridoma supernatant (mouse IgG, detected or captured via anti-mouse IgG Fc); also called anti-MS4A6A antibody 6A-14) VH: QVQLKQSGPGLVQPSQSLSITCTVSGFSLTTYGVHWVRQSPGKGLEWLGVIWSGGSTDYNAAFISRLNISKDNSKSQVFFKMNSLQANDTAIYYCARGYGSSYEYFDVWGAGTTVTVSS VL: DIVLTQSPASLAVSLGQRATISCRASESVDSYGNSFMHWYQQKPGQPPKLLIYRASNLESGIPARFSGSGSRTDFTLTINPVEADDVATYYCQQSNEDPLTFGAGTKLELK |

Second part, the binder before the results:

| Binder | binding result (MS4A6A ECL1 peptide) | Kd (MS4A6A ECL2 peptide) | koff (MS4A6A ECL2 peptide) | kon (MS4A6A ECL2 peptide) | ratio of APC MFI on MS4A6A+/HEK parental cells (cynomolgus (cyno) MS4A6A [1]) [ratio] | ratio of APC MFI on MS4A6A+/HEK parental cells (cynomolgus (cyno) MS4A6A [2]) [ratio] |
| --- | --- | --- | --- | --- | --- | --- |
| 6A-15 (antibody, V domains shown, Mouse hybridoma antibody, tested as hybridoma supernatant (mouse IgG, detected or captured via anti-mouse IgG Fc); also called anti-MS4A6A antibody 6A-15) VH: EVMLVESGGGLVKPGGSLKLSCAASGFTFSSHAMSWVRQTPEKRLEWVATISSGDSYTYYPDSVKGRFTISRDNAKNTLYLQMTSLRSEDTAMYYCIRHIYYGNLYYAMDYWGQGTSVTVSS VL: DVLMTQTPLSLPVSLGDQASISCRSSQSIIHNNGNTYLEWYLQKPGQSPKLLIYKVSNRFSGVPDRFSGSGSGTYFTLKISRVEADDLGVYYCFQGSHVPWTFGGGTKLEIK | no binding | 76 nM and 86 nM | 0.00038 s⁻¹ and 0.00043 s⁻¹ | 5000 M⁻¹ s⁻¹ | 3.8 | 8.4 |
| 6A-18 (antibody, V domains shown, Mouse hybridoma antibody, tested as hybridoma supernatant (mouse IgG, detected or captured via anti-mouse IgG Fc); also called anti-MS4A6A antibody 6A-18) VH: EVQLQQSGPELVKPGASVKISCKASGYSFTGYYIHWVKESHVKSLEWIGRINPKNGVTSYNQNFKDKASLTVDRSSSTAYMDLYSLTSEDSAVYYCASTFITGWGQGTSLTVSS VL: DVLLTQAPLSLPVSLGDQASISCRSSQTIVHSDGNTYLEWYLQKPGQSPKLLIYTVSNRFSGVPDRFSGSGSGTDFTLKISRVEAEDLGVYYCFQGSHVPWTFGGGTKLEIK | no binding | 180 nM | 0.00049 s⁻¹ | 2700 M⁻¹ s⁻¹ | 4.1 | 20.3 |
| 6A-11 (antibody, V domains shown, Mouse hybridoma antibody, tested as hybridoma supernatant (mouse IgG, detected or captured via anti-mouse IgG Fc); also called anti-MS4A6A antibody 6A-11) VH: EVQLQQSGPDLVKPGASVKISCKASGYSFTGYYIHWVKQSHIKSLEWIGRINPNNGATNYNQIFKDKATLTVDRSSSTAYMDLHSLTSEDSAVYYCVSTFITGWGQGTTLTVSS VL: DVLLTQTPLSLPVSLGDQASISCRSSQTIVHSDGNTYLEWYLQRPGLSPKLLIYKVSIRFSGVPDRFSGSGSGTDFTLKISRVEAEDLGVYYCFQGSHVPWTFGGGTKLEIK | no binding | – | – | – | 8.6 | 61.7 |
| 6A-9 (antibody, V domains shown, Mouse hybridoma antibody, tested as hybridoma supernatant (mouse IgG, detected or captured via anti-mouse IgG Fc); also called anti-MS4A6A antibody 6A-9) VH: EVQLQQSGPELVKPGASVKISCKASGYSFTGYYIHWVKESHVKSLEWIGRINPKNGVTSYNQNFKDKASLTVDRSSSTAYMDLYSLTSEDSAVYYCASTFITGWGQGTSLTVSS VL: DVLLTQAPLSLPVSLGDQASISCRSSQTIVHSDGNTYLEWYLQKPGQSPKLLIYTVSNRFSGVPDRFSGSGSGTDFTLKISRVEAEDLGVYYCFQGSHVPWTFGGGTKLEIK | no binding | 290 nM | 0.0011 s⁻¹ | 3900 M⁻¹ s⁻¹ | 12.6 | 84 |
| 6A-16 (antibody, V domains shown, Mouse hybridoma antibody, tested as hybridoma supernatant (mouse IgG, detected or captured via anti-mouse IgG Fc); also called anti-MS4A6A antibody 6A-16) VH: EVQLQQSGPELVKPGASVKISCKASGYSFTGYYIHWVKESHVKSLEWIGRINPKNGVTSYNQNFKDKASLTVDRSSSTAYMDLYSLTSEDSAVYYCASTFITGWGQGTTVTVSS VL: DVLLTQAPLSLPVSLGDQASISCRSSQTIVHSDGNTYLEWYLQKPGQSPKLLIYTVSNRFSGVPDRFSGSGSGTDFTLKISRVEAEDLGVYYCFQGSHVPWTFGGGTKLEIK | no binding | 180 nM and 150 nM | 0.00097 s⁻¹ and 0.00049 s⁻¹ | 5500 M⁻¹ s⁻¹ and 3400 M⁻¹ s⁻¹ | 14.4 | 28.5 |
| 6A-13 (antibody, V domains shown, Mouse hybridoma antibody, tested as hybridoma supernatant (mouse IgG, detected or captured via anti-mouse IgG Fc); also called anti-MS4A6A antibody 6A-13) VH: EVKVVESGGGLVQPGGSLRLSCATAGFTFTDYYMTWVRQPPGKALEWLGFIRNKANGYTTEYNSSVKGRFTISRDNSRSILYLQMNTLRAEDSATYYCARSMDYWGQGTSVTVSS VL: NIVMTQSPNSMSMSVGERVTLSCKASENVGTYVSWYQQKPDQSPKLLIYGASNRYTGVPDRFTGGGSATDFTLTISSVQAEDLADYHCGQTYSFPYTFGGGTKLEIK | no binding | 140 nM and 180 nM | 0.00066 s⁻¹ and 0.00092 s⁻¹ | 4800 M⁻¹ s⁻¹ and 5300 M⁻¹ s⁻¹ | 24.8 | 30.3 |
| 6A-22 (antibody, V domains shown, Mouse hybridoma antibody, tested as hybridoma supernatant (mouse IgG, detected or captured via anti-mouse IgG Fc); also called anti-MS4A6A antibody 6A-22) VH: EVNLEESGGDLVQPGGSMKLSCLASGFTFSDAWMDWVRQSPEKGLEWVAEIKNKANNYVTFYAASVKGRFTISRDDSKSSVYLQMNNLRPEDTGIYFCTRGSVYGNWFPYWGQGTLVTVSA VL: DIVMSQSPSSLAVSAGEKVTMTCKSSQSLFNSRTRKNYLTWYQQKPGQSPKVLIYWASTRESGVPDRFTGSGSGTDFSLTISSVQADDLAVYYCKQSYNLLTFGAGTRLELK | no binding | 390 nM and 250 nM | 0.0023 s⁻¹ and 0.0021 s⁻¹ | 6000 M⁻¹ s⁻¹ and 8400 M⁻¹ s⁻¹ | 175 | 68.8 |
